{"source": "patent US11535650", "about": "(RA PHARMACEUTICALS, dated 2022)", "binders": {"B1": {"name": "R3119 (peptide)", "peptide": "Ac-YENY[dW]EYP[Phg][Nva]-NH2", "SMILES": "CCC[C@H](NC(=O)[C@@H](NC(=O)[C@@H]1CCCN1C(=O)[C@H](Cc1ccc(O)cc1)NC(=O)[C@H](CCC(=O)O)NC(=O)[C@@H](Cc1c[nH]c2ccccc12)NC(=O)[C@H](Cc1ccc(O)cc1)NC(=O)[C@H](CC(N)=O)NC(=O)[C@H](CCC(=O)O)NC(=O)[C@H](Cc1ccc(O)cc1)NC(C)=O)c1ccccc1)C(N)=O"}, "B2": {"name": "R3136 (peptide)", "peptide": "Heptanoyl-[Nva]C[dPhg]T[Trp(7-aza)]EY[NMeS]AC[Nva]-NH2", "modifications": "linker 2-10 via mXylyl″; not fully specified; printed as [mXylyl(2,10)]heptanoyl-Nvl-C-(D-Phg)-T-azaTrp-E-Y-(N-Me)S-A-C-Nvl-NH2"}, "B3": {"name": "R3137 (peptide)", "peptide": "Heptanoyl-C[dPhg]T[Trp(7-aza)]EY[NMeS]AC[Nva]-NH2", "modifications": "linker 1-9 via mXylyl″; not fully specified; printed as [mXylyl(1,9)]heptanoyl-C-(D-Phg)-T-azaTrp-E-Y-(N-Me)S-A-C-Nvl-NH2"}}, "note": "Positions of bridges follow the written chain, without caps; N, C: chain ends. Non-standard residues stand in square brackets, D forms with d. Primed or numbered codes have the meaning given here. *: point of attachment. mXylyl(3) = bridging moiety between the two residues given in brackets; mXylyl″ = bridging moiety between the two marked residues; mXylyl = bridging moiety between residues (mXylyl(i,j)); Ala(1H-tetrazol-5-yl) = N[C@@H](Cc1nnn[nH]1)C(=O)O; Trp(7-aza) = N[C@@H](Cc1c[nH]c2ncccc12)C(=O)O; mXylyl(4) = bridging moiety between residues; Phe(3-Cl) = N[C@@H](Cc1cccc(Cl)c1)C(=O)O; Tiq1c(1S) = O=C(O)[C@H]1NCCc2ccccc21; dPhg = N[C@@H](C(=O)O)c1ccccc1; Phg = N[C@H](C(=O)O)c1ccccc1; Tle = CC(C)(C)[C@H](N)C(=O)O; Lys‑C12 = N-ε-lauryl lysine; NMeS = CN[C@@H](CO)C(=O)O; Heptanoyl = CCCCCCC(=O)*; Nle = CCCC[C@H](N)C(=O)O; Pra = C#CC[C@H](N)C(=O)O; Nva = CCC[C@H](N)C(=O)O"}
{"biological_target": "human C5 protein (human, UniProt P01031 19-673; P01031 678-1676)", "experiment": "cell-based or functional assay", "units": {"Avg. IC50, human hemolysis assay (complete human sera)": "nM"}}
{"binder": "Ac-[Nva]T[Phg]C[Trp(7-aza)]EY[NMeS]AC[Nva]-NH2 (linker 4-10 via mXylyl(4))", "note": "[R3111]", "Avg. IC50, human hemolysis assay (complete human sera)": "> 5000"}
{"binder": "Ac-[Nle]C[Phg]T[Trp(7-aza)]EY[NMeS]HC[Nva]-NH2 (linker 2-10 via mXylyl(4))", "note": "[R3112]", "Avg. IC50, human hemolysis assay (complete human sera)": "> 5000"}
{"binder": "Ac-Y[Nva]C[Phg]T[Trp(7-aza)]EY[NMeS]HC[Nva]-NH2 (linker 3-11 via mXylyl(4))", "note": "[R3113]", "Avg. IC50, human hemolysis assay (complete human sera)": "> 5000"}
{"binder": "B1", "Avg. IC50, human hemolysis assay (complete human sera)": "> 100000"}
{"binder": "Ac-[Nva]C[Tiq1c(1S)]T[Trp(7-aza)]EY[NMeS]HC[Nva]-NH2 (linker 2-10 via mXylyl(3))", "note": "[R3122]", "Avg. IC50, human hemolysis assay (complete human sera)": "> 50000"}
{"binder": "Ac-CVERFCVYWEF-NH2 (linker 1-6 via mXylyl(4))", "note": "[R3124]", "Avg. IC50, human hemolysis assay (complete human sera)": "> 100000"}
{"binder": "Ac-CVERFCWEF-NH2 (linker 1-6 via mXylyl(4))", "note": "[R3125]", "Avg. IC50, human hemolysis assay (complete human sera)": "> 100000"}
{"binder": "Ac-[Nva]CYNN[Tle]E[Trp(7-aza)]ECP[Phg][Tle]-NH2 (cysteine pairing not given here)", "note": "[R3126]", "Avg. IC50, human hemolysis assay (complete human sera)": "> 3000"}
{"binder": "Ac-[Nva]CYNN[Tle]E[Trp(7-aza)]ECP[Phg][Tle]-NH2 (linker 2-10 via mXylyl(4))", "note": "[R3127]", "Avg. IC50, human hemolysis assay (complete human sera)": "> 75000"}
{"binder": "Ac-[Nva]CYNN[Tle]ECEYP[Phg][Tle]-NH2 (cysteine pairing not given here)", "note": "[R3128]", "Avg. IC50, human hemolysis assay (complete human sera)": "> 100000"}
{"binder": "Ac-[Nva]CYNN[Tle]ECEYP[Phg][Tle]-NH2 (linker 2-8 via mXylyl(4))", "note": "[R3129]", "Avg. IC50, human hemolysis assay (complete human sera)": "> 100000"}
{"binder": "Ac-[Nva]C[Phg]T[Trp(7-aza)]EY[NMeS]HC[Nva]-NH2 (linker 2-10 via mXylyl)", "note": "[R3012]", "Avg. IC50, human hemolysis assay (complete human sera)": 148}
{"binder": "Ac-[Nva]C[Phg]TW[Ala(1H-tetrazol-5-yl)]Y[NMeS]HC[Nva]-NH2 (linker 2-10 via mXylyl(3))", "note": "[R3131]", "Avg. IC50, human hemolysis assay (complete human sera)": "> 100000"}
{"binder": "Ac-[Nva]C[Phg]T[dW]EY[NMeS]HC[Nva]-NH2 (linker 2-10 via mXylyl″)", "note": "[R3132]", "Avg. IC50, human hemolysis assay (complete human sera)": "> 100000"}
{"binder": "Ac-[Nva]C[Phg][dA][Trp(7-aza)]EY[NMeS]HC[Nva]-NH2 (linker 2-10 via mXylyl″)", "note": "[R3133]", "Avg. IC50, human hemolysis assay (complete human sera)": "> 75000"}
{"binder": "Ac-[Nva]C[Phg]T[Trp(7-aza)]E[Phe(3-Cl)][NMeS]AC[Nva]-NH2 (linker 2-10 via mXylyl″)", "note": "[R3134]", "Avg. IC50, human hemolysis assay (complete human sera)": "> 5000"}
{"binder": "Ac-[Nva]C[Phg]T[Trp(7-aza)]EY[NMeS][dA]C[Nva]-NH2 (linker 2-10 via mXylyl″)", "note": "[R3135]", "Avg. IC50, human hemolysis assay (complete human sera)": "> 25000"}
{"binder": "B2", "Avg. IC50, human hemolysis assay (complete human sera)": "> 50000"}
{"binder": "B3", "Avg. IC50, human hemolysis assay (complete human sera)": "> 100000"}
{"binder": "Ac-CVERFCD[Tle]YWEF-NH2 (linker 1-6 via mXylyl″)", "note": "[R3138]", "Avg. IC50, human hemolysis assay (complete human sera)": 87.2}
{"binder": "Ac-C[Tle]ERFCD[Tle]YWEF-NH2 (linker 1-6 via mXylyl″)", "note": "[R3139]", "Avg. IC50, human hemolysis assay (complete human sera)": 97.2}
{"binder": "Ac-CVERFCDVYWEYP-NH2 (linker 1-6 via mXylyl″)", "note": "[R3140]", "Avg. IC50, human hemolysis assay (complete human sera)": 17.9}
{"binder": "Ac-[Nva]C[Phg]T[Trp(7-aza)]EY[NMeS]HC-NH2 (linker 2-10 via mXylyl)", "note": "[R3013]", "Avg. IC50, human hemolysis assay (complete human sera)": 344}
{"binder": "Ac-CVERFCDVYWEFP-NH2 (linker 1-6 via mXylyl″)", "note": "[R3141]", "Avg. IC50, human hemolysis assay (complete human sera)": 24.5}
{"binder": "Ac-CVERFCDVY[Trp(7-aza)]EYP-NH2 (linker 1-6 via mXylyl″)", "note": "[R3142]", "Avg. IC50, human hemolysis assay (complete human sera)": 44.6}
{"binder": "CVERFCDGYWEYP ([mXylyl(1,6)]Ac-C-V-E-R-F-C-D-Tbg-Y-W-E-Y-P-NH2)", "note": "[R3143]", "Avg. IC50, human hemolysis assay (complete human sera)": 18.6}
{"binder": "Ac-C[Tle]ERFCDVYWEF-NH2 (linker 1-6 via mXylyl″)", "note": "[R3146]", "Avg. IC50, human hemolysis assay (complete human sera)": 107}
{"binder": "Ac-CVERFCDVYWEF[Pra]-NH2 (linker 1-6 via mXylyl″)", "note": "[R3147]", "Avg. IC50, human hemolysis assay (complete human sera)": 138}
{"binder": "Ac-CAERFCD[Tle]YWEYP[Phg][Nva]-NH2 (linker 1-6 via mXylyl″)", "note": "[R3148]", "Avg. IC50, human hemolysis assay (complete human sera)": 8.5}
{"binder": "Ac-CAERFCD[Tle]YWEYP[dPhg][Nva]-NH2 (linker 1-6 via mXylyl″)", "note": "[R3149]", "Avg. IC50, human hemolysis assay (complete human sera)": 13.6}
{"binder": "Ac-CVARFCD[Tle]Y[Trp(7-aza)]EYP[Phg][Nva]-NH2 (linker 1-6 via mXylyl″)", "note": "[R3150]", "Avg. IC50, human hemolysis assay (complete human sera)": 32}
{"binder": "Ac-CVARFCD[Tle]Y[Trp(7-aza)]EYP[dPhg][Nva]-NH2 (linker 1-6 via mXylyl″)", "note": "[R3151]", "Avg. IC50, human hemolysis assay (complete human sera)": 165}
{"binder": "Ac-CVEAFCD[Tle]Y[Trp(7-aza)]EYP[Phg][Nva]-NH2 (linker 1-6 via mXylyl″)", "note": "[R3153]", "Avg. IC50, human hemolysis assay (complete human sera)": 175}
{"binder": "Ac-CVEAFCD[Tle]Y[Trp(7-aza)]EYP[dPhg][Nva]-NH2 (linker 1-6 via mXylyl″)", "note": "[R3154]", "Avg. IC50, human hemolysis assay (complete human sera)": 592}
{"binder": "Ac-CVERACD[Tle]Y[Trp(7-aza)]EYP[Phg][Nva]-NH2 (linker 1-6 via mXylyl″)", "note": "[R3155]", "Avg. IC50, human hemolysis assay (complete human sera)": 1530}
{"binder": "Ac-CVERACD[Tle]Y[Trp(7-aza)]EYP[dPhg][Nva]-NH2 (linker 1-6 via mXylyl″)", "note": "[R3156]", "Avg. IC50, human hemolysis assay (complete human sera)": "> 10000"}
{"binder": "Ac-CVERFCA[Tle]Y[Trp(7-aza)]EYP[Phg][Nva]-NH2 (linker 1-6 via mXylyl″)", "note": "[R3157]", "Avg. IC50, human hemolysis assay (complete human sera)": 84.5}
{"binder": "Ac-CVERFCA[Tle]Y[Trp(7-aza)]EYP[dPhg][Nva]-NH2 (linker 1-6 via mXylyl″)", "note": "[R3158]", "Avg. IC50, human hemolysis assay (complete human sera)": 327}
{"binder": "Ac-C[Phg]T[Trp(7-aza)]EY[NMeS]HC-NH2 (linker 1-9 via mXylyl)", "note": "[R3015]", "Avg. IC50, human hemolysis assay (complete human sera)": "> 3960"}
{"binder": "Ac-CAERFCD[Tle]Y[Trp(7-aza)]EYP[Phg]K-NH2 (linker 1-6 via mXylyl″)", "note": "[R3161]", "Avg. IC50, human hemolysis assay (complete human sera)": 7}
{"binder": "Ac-CAERFCD[Tle]Y[Trp(7-aza)]EYP[dPhg]K-NH2 (linker 1-6 via mXylyl″)", "note": "[R3162]", "Avg. IC50, human hemolysis assay (complete human sera)": 16.5}
{"binder": "Ac-CAERFCD[Tle]Y[Trp(7-aza)]EYP[Phg][Lys‑C12]-NH2 (linker 1-6 via mXylyl″)", "note": "[R3164]", "Avg. IC50, human hemolysis assay (complete human sera)": 36}
